In publication PMC9482650, “Quantitative fragmentomics allow affinity mapping of interactomes” (Nature Communications, 2022):
Numbering of substitutions follows the chain as printed.

Legend:
Assay in all cases: holdup assay
Parameters in all cases: key: below the threshold = too weak to quantify, mostly under pKd 3.1 to 4
[1] = molecular target: HTRA1, Q92743
[2] = molecular target: T1, LNX2_3, Q8N448
T1 sequence (Q8N448 463-564, limits assumed, looked up): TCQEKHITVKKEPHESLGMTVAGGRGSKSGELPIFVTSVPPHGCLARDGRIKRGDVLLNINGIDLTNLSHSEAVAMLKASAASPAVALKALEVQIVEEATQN

[3] = molecular target: T2, LIN7B, Q9HAP6
T2 sequence (Q9HAP6 88-185, limits assumed, looked up): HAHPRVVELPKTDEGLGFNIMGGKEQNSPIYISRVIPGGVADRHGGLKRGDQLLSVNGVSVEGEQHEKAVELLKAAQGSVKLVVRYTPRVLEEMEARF

[4] = molecular target: NOS1, P29475
[5] = molecular target: T3, LIN7A, O14910
T3 sequence (O14910 103-200, limits assumed, looked up): T2 sequence (Q9HAP6 88-185, limits assumed, looked up) with A2S, I20V, V35I, D42E, Q65H, Q77K, G78D, R89K

[6] = molecular target: T4, MPP2, Q14168
T4 sequence (Q14168 180-250, limits assumed, looked up): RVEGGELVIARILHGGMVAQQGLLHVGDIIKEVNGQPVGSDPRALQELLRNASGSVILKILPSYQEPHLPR

[7] = molecular target: IL16_1, Q14005
[8] = molecular target: MAGI2_2, Q86UL8
[9] = molecular target: GRASP, Q7Z6J2
[10] = molecular target: HTRA2, O43464
[11] = molecular target: GRIP2_6, Q9C0E4
[12] = molecular target: T5, PARD3B_1, Q8TEW8
T5 sequence (Q8TEW8 196-299, limits assumed, looked up): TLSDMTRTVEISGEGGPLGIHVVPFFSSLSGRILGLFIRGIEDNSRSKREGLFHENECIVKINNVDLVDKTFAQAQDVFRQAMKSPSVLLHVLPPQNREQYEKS

[13] = molecular target: NHERF2_2, Q15599
[14] = molecular target: T6, SNTA1, Q13424
T6 sequence (Q13424 82-180, limits assumed, looked up): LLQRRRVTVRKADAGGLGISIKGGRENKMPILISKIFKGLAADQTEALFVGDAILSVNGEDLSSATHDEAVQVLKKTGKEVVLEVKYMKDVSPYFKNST

[15] = molecular target: T7, APBA2_2, Q99767
T7 sequence (Q99767 654-744, limits assumed, looked up): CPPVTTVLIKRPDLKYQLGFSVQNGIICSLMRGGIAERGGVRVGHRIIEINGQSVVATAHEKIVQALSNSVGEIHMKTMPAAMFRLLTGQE

[16] = molecular target: FRMPD4, Q14CM0
[17] = molecular target: T8, DVL3, Q92997
T8 sequence (Q92997 244-331, limits assumed, looked up): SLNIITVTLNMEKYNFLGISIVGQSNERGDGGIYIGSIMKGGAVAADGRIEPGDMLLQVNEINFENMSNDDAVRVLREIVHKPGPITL

[18] = molecular target: T9, SIPA1L2, Q9P2F8
T9 sequence (Q9P2F8 945-1036, limits assumed, looked up): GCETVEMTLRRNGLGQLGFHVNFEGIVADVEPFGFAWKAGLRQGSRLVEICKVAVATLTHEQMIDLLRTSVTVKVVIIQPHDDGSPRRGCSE

[19] = molecular target: SCRIB_1, Q14160
[20] = molecular target: T10, ARHGEF11, O15085
T10 sequence (O15085 42-136, limits assumed, looked up): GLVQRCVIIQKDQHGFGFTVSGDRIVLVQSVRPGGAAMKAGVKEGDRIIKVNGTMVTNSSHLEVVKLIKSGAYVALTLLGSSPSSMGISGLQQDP

[21] = molecular target: CASK, O14936
[22] = molecular target: MAST1, Q9Y2H9
[23] = molecular target: PDLIM1, O00151
[24] = molecular target: T11, ARHGAP21, Q5T5U3
T11 sequence (Q5T5U3 45-169, limits assumed, looked up): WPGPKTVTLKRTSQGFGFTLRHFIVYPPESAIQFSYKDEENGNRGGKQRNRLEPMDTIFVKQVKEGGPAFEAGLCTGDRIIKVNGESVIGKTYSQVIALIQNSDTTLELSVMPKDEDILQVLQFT

[25] = molecular target: T12, DLG3_3, Q92796
T12 sequence (Q92796 374-475, limits assumed, looked up): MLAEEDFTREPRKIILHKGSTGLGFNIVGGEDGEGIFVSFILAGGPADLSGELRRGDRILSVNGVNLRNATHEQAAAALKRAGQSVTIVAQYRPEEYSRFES

[26] = plain residues with an end cap or a label only (N-terminal biotin on a linker: ttds)
[27] = plain residues with an end cap or a label only (N-terminal biotin on a linker: ado-ado)

Sequence of NOS1, P29475 (P29475 9-101): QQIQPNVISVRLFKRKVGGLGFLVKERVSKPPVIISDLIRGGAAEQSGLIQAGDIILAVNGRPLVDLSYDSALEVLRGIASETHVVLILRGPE
Sequence of SCRIB_1, Q14160 (Q14160 718-814): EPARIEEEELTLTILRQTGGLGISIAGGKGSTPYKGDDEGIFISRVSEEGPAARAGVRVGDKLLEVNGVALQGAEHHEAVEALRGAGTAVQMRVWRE
Sequence of HTRA2, O43464 (O43464 355-458): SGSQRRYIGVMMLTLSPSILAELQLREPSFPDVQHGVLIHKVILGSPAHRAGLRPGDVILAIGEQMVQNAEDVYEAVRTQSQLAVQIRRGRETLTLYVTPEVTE
Sequence of NHERF2_2, Q15599 (Q15599 142-238): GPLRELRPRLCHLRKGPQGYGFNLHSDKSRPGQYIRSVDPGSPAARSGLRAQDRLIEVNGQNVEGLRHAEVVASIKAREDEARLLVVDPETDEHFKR
Sequence of FRMPD4, Q14CM0 (Q14CM0 67-160): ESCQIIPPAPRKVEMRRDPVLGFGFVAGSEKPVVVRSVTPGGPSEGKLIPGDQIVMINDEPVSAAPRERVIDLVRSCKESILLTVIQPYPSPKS
Sequence of GRIP2_6, Q9C0E4 (Q9C0E4 648-740): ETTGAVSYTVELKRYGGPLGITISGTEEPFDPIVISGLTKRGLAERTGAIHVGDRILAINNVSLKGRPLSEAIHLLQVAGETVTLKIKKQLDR
Sequence of IL16_1, Q14005 (Q14005 210-306): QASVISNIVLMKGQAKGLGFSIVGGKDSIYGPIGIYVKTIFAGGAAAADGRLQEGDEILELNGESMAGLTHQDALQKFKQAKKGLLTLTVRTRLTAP
Sequence of HTRA1, Q92743 (Q92743 360-477): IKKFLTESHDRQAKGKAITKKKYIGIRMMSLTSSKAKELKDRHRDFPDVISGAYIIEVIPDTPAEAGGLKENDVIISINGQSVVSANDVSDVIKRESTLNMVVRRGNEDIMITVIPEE
Sequence of CASK, O14936 (O14936 487-570): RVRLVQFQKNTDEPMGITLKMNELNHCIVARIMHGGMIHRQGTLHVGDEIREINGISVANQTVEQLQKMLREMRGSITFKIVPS
Sequence of PDLIM1, O00151 (O00151 1-87): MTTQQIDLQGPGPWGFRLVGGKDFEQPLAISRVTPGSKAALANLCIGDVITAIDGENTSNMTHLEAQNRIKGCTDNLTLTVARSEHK
Sequence of MAST1, Q9Y2H9 (Q9Y2H9 962-1065): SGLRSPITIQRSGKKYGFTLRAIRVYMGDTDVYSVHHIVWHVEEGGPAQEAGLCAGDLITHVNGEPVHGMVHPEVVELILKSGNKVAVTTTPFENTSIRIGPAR
Sequence of GRASP, Q7Z6J2 (Q7Z6J2 96-193): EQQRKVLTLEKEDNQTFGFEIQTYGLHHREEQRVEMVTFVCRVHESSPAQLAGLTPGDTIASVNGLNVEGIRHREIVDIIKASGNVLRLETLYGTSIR
Sequence of MAGI2_2, Q86UL8 (Q86UL8 410-522): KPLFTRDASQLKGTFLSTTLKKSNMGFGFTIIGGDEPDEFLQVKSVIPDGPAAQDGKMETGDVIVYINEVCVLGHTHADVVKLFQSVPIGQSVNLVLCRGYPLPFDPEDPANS

B1: PODXL, O00592 (peptide)
chain: DLDEEEDTHL
Question: Which pKd [1, 26] does the source give for B1 here?
Answer: The pKd was 3.73.

Question: And the pKd [2, 26]?
Answer: Its pKd is “below the threshold”.

Question: And the pKd [3, 26]?
Answer: Its pKd is “below the threshold”.

Question: What about the pKd [4, 26] of the same binder?
Answer: The pKd was “below the threshold”.

Question: What about the pKd [5, 26] of the same binder?
Answer: Its pKd is “below the threshold”.

Question: What about the pKd [6, 26] of the same binder?
Answer: The pKd was “below the threshold”.

Question: And the pKd [7, 26]?
Answer: The pKd was “below the threshold”.

Question: And the pKd [8, 26]?
Answer: The pKd was “below the threshold”.

Question: What about the pKd [9, 26] of the same binder?
Answer: The pKd was “below the threshold”.

Question: And the pKd [10, 26]?
Answer: Its pKd is 3.52.

Question: And the pKd [11, 26]?
Answer: Its pKd is “below the threshold”.

Question: What about the pKd [12, 26] of the same binder?
Answer: Its pKd is “below the threshold”.

Question: And the pKd [13, 26]?
Answer: The pKd was 5.39.

Question: What about the pKd [14, 26] of the same binder?
Answer: The pKd was 3.63.

Question: And the pKd [15, 26]?
Answer: Its pKd is “below the threshold”.

Question: And the pKd [16, 26]?
Answer: Its pKd is 4.7.

Question: And the pKd [17, 26]?
Answer: The pKd was “below the threshold”.

Question: And the pKd [18, 26]?
Answer: Its pKd is “below the threshold”.

Question: What about the pKd [19, 26] of the same binder?
Answer: Its pKd is 5.08.

Question: What about the pKd [20, 26] of the same binder?
Answer: The pKd was “below the threshold”.

Question: What about the pKd [21, 26] of the same binder?
Answer: The pKd was “below the threshold”.

Question: And the pKd [22, 26]?
Answer: Its pKd is 4.19.

Question: And the pKd [23, 26]?
Answer: Its pKd is 3.52.

Question: What about the pKd [24, 26] of the same binder?
Answer: Its pKd is 3.56.

Question: And the pKd [25, 26]?
Answer: The pKd was “below the threshold”.

B2: GDA, Q9Y2T3 (peptide)
chain: KQVVPFSSSV
Question: Which pKd [1, 26] does the source give for B2 here?
Answer: Its pKd is “below the threshold”.

Question: And the pKd [2, 26]?
Answer: The pKd was “below the threshold”.

Question: What about the pKd [3, 26] of the same binder?
Answer: The pKd was “below the threshold”.

Question: What about the pKd [4, 26] of the same binder?
Answer: Its pKd is “below the threshold”.

Question: And the pKd [5, 26]?
Answer: The pKd was “below the threshold”.

Question: And the pKd [6, 26]?
Answer: The pKd was “below the threshold”.

Question: And the pKd [7, 26]?
Answer: Its pKd is 3.86.

Question: And the pKd [8, 26]?
Answer: Its pKd is “below the threshold”.

Question: What about the pKd [9, 26] of the same binder?
Answer: Its pKd is 3.86.

Question: And the pKd [10, 26]?
Answer: The pKd was “below the threshold”.

Question: What about the pKd [11, 26] of the same binder?
Answer: Its pKd is “below the threshold”.

Question: And the pKd [12, 26]?
Answer: Its pKd is “below the threshold”.

Question: What about the pKd [13, 26] of the same binder?
Answer: The pKd was “below the threshold”.

Question: What about the pKd [14, 26] of the same binder?
Answer: The pKd was “below the threshold”.

Question: And the pKd [15, 26]?
Answer: Its pKd is “below the threshold”.

Question: And the pKd [16, 26]?
Answer: Its pKd is “below the threshold”.

Question: What about the pKd [17, 26] of the same binder?
Answer: Its pKd is “below the threshold”.

Question: And the pKd [18, 26]?
Answer: Its pKd is “below the threshold”.

Question: What about the pKd [19, 26] of the same binder?
Answer: The pKd was 3.51.

Question: What about the pKd [20, 26] of the same binder?
Answer: The pKd was 3.56.

Question: What about the pKd [21, 26] of the same binder?
Answer: The pKd was “below the threshold”.

Question: What about the pKd [22, 26] of the same binder?
Answer: The pKd was 4.04.

Question: What about the pKd [23, 26] of the same binder?
Answer: The pKd was “below the threshold”.

Question: What about the pKd [24, 26] of the same binder?
Answer: Its pKd is “below the threshold”.

Question: What about the pKd [25, 26] of the same binder?
Answer: Its pKd is “below the threshold”.

B3: DGKI, O75912 (peptide)
chain: IGHEDLETAV
Question: What does the source list for B3?
Answer: pKd [1, 27]: 3.65; pKd [2, 27]: below the threshold; pKd [3, 27]: 4.11; pKd [4, 27]: 4.17; pKd [5, 27]: 4.07; pKd [6, 27]: below the threshold; pKd [7, 27]: 4.26; pKd [8, 27]: 3.74; pKd [9, 27]: 3.57; pKd [10, 27]: below the threshold; pKd [11, 27]: below the threshold; pKd [12, 27]: below the threshold; pKd [13, 27]: 4.12; pKd [14, 27]: 5.18; pKd [15, 27]: below the threshold; pKd [16, 27]: 3.9; pKd [17, 27]: below the threshold; pKd [18, 27]: below the threshold; pKd [19, 27]: 4.49; pKd [20, 27]: 4.55; pKd [21, 27]: below the threshold; pKd [22, 27]: 4.89; pKd [23, 27]: below the threshold; pKd [24, 27]: below the threshold; pKd [25, 27]: 4.02

B4: MAPK12, P53778 (peptide)
chain: GARVSKETPL
Question: B4 was tested. Which pKd [1, 26] did it give?
Answer: The pKd was “below the threshold”.

Question: And the pKd [2, 26]?
Answer: The pKd was “below the threshold”.

Question: What about the pKd [3, 26] of the same binder?
Answer: Its pKd is 3.86.

Question: What about the pKd [4, 26] of the same binder?
Answer: The pKd was 3.82.

Question: And the pKd [5, 26]?
Answer: Its pKd is “below the threshold”.

Question: What about the pKd [6, 26] of the same binder?
Answer: Its pKd is “below the threshold”.

Question: And the pKd [7, 26]?
Answer: The pKd was “below the threshold”.

Question: And the pKd [8, 26]?
Answer: The pKd was 3.83.

Question: And the pKd [9, 26]?
Answer: The pKd was 3.66.

Question: And the pKd [10, 26]?
Answer: Its pKd is “below the threshold”.

Question: What about the pKd [11, 26] of the same binder?
Answer: Its pKd is “below the threshold”.

Question: What about the pKd [12, 26] of the same binder?
Answer: The pKd was “below the threshold”.

Question: And the pKd [13, 26]?
Answer: The pKd was 4.09.

Question: And the pKd [14, 26]?
Answer: The pKd was 4.49.

Question: What about the pKd [15, 26] of the same binder?
Answer: Its pKd is “below the threshold”.

Question: What about the pKd [16, 26] of the same binder?
Answer: Its pKd is 4.1.

Question: What about the pKd [17, 26] of the same binder?
Answer: The pKd was “below the threshold”.

Question: And the pKd [18, 26]?
Answer: Its pKd is “below the threshold”.

Question: What about the pKd [19, 26] of the same binder?
Answer: The pKd was 4.94.

Question: And the pKd [20, 26]?
Answer: Its pKd is 3.48.

Question: And the pKd [21, 26]?
Answer: Its pKd is “below the threshold”.

Question: What about the pKd [22, 26] of the same binder?
Answer: Its pKd is 4.65.

Question: And the pKd [23, 26]?
Answer: Its pKd is “below the threshold”.

Question: What about the pKd [24, 26] of the same binder?
Answer: The pKd was “below the threshold”.

Question: What about the pKd [25, 26] of the same binder?
Answer: Its pKd is 4.01.
